Assay results as given in publication PMC3576267.

Columns and labels:
[1] = tested on: GST-Jazz (three zinc finger artificial transcription factor) (synthetic construct); assay: EMSA; details: 50 uM ZnCl2; 5-96 nM protein; at 12 nM shift weaker than GST-UtroUp (Fig. 2C); EMSA: 20 mM Hepes pH 7.5, 0.5 mM DTT, 100 mM NaCl, 50 uM ZnCl2, 50 ug/ml BSA, 100 ng poly(dI-dC), 0.05% NP40, 5% glycerol; temperature not stated
[2] = tested on: GST-UtroUp (six zinc finger artificial transcription factor) (synthetic construct); assay: EMSA; details: 50 uM ZnCl2; 1-90 nM protein; mean of five experiments; EMSA: 20 mM Hepes pH 7.5, 0.5 mM DTT, 100 mM NaCl, 50 uM ZnCl2, 50 ug/ml BSA, 100 ng poly(dI-dC), 0.05% NP40, 5% glycerol; temperature not stated

Question: How did the Kd [1] turn out when “ATTAAGCCGGGCTGCTGCGGGCTGGGAGTATGATCC (double strand) [WT UtroUp (UtroUp-Jazz) DNA target]” was run?
Answer: The Kd was 32 nM.

Question: And the Kd [2]?
Answer: Its Kd is 3.5 nM.
